Results from publication PMC3674885.
Like-named read-outs stand apart in the source and are kept apart here.

How the values were obtained:
[1] = target: TrkA receptor (rat) on MG139 cells (rat) (UniProt P35739)
[2] = target: both classes of receptors (TrkA and p75) on PC12 cells (rat (endogenous in PC12)); experiment: radioligand binding
[3] = target: TrkA receptor (rat) on MG139 cells (rat) (UniProt P35739); experiment: radioligand binding
[4] = target: both classes of receptors (TrkA and p75) on PC12 cells (rat (endogenous in PC12)); experiment: radioligand binding; remark: listed apart in the source
[5] = target: TrkA receptor (rat) on MG139 cells (rat) (UniProt P35739); experiment: radioligand binding; remark: listed apart in the source
[6] = target: high-affinity site on PC12 cells (cold-temperature, cold-chase stable binding) (rat (endogenous in PC12)); experiment: radioligand binding
[7] = target: 7-84-103 NGF mutein (F7A/H84A/R103A); experiment: native gel or EMSA + other: high-performance ion-exchange chromatography; details: native gel or EMSA + other: high-performance ion-exchange chromatography (HPIEC)

Chain of UniProt P35739 (P35739 33-799): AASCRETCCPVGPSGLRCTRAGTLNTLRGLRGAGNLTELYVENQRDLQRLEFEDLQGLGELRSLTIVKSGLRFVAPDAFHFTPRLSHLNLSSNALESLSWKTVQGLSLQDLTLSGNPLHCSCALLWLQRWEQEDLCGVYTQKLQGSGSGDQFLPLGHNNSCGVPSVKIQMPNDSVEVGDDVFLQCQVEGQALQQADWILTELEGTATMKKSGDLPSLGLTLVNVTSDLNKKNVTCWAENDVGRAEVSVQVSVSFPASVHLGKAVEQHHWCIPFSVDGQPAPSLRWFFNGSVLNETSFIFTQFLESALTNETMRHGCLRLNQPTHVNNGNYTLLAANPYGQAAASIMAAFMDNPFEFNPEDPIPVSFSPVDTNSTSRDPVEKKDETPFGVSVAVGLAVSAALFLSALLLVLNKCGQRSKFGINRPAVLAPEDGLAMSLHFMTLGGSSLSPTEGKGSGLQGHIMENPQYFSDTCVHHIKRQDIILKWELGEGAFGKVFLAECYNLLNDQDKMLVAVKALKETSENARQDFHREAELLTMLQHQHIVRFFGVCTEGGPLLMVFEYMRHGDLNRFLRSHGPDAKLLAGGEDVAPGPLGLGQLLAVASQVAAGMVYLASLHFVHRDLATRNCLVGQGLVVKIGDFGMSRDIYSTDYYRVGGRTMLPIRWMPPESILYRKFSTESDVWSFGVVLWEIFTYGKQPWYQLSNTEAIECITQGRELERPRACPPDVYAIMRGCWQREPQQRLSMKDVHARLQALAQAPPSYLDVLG

Molecule | XTT assay of survival of MG139 cells (TrkA+/p75-), 72 hr, EC50 [1] [nM] | trypan blue survival assay of PC12 cells (TrkA+/p75+), 72 hr, EC50 [1] [nM] | IC50 [2] [nM] | IC50 [3] [nM] | IC50 [4] [nM] | IC50 [5] [nM] | neurite outgrowth of PC12 cells, 48 hr, EC50 [1] [nM] | percent of ^125I-NGF binding left at the plateau of the competition curve [4] [%] | percent of the cold-chase stable ^125I-NGF binding competed away [6] [%] | percent of the protein as heterodimer Htm1 in the 1:1 mixture (Mix1a) [7] [% in Mix1a] | percent of the protein as heterodimer Htm1 in the 1:2 mixture (Mix1) [7] [% in Mix1]
7-84-103 NGF mutein (F7A/H84A/R103A) (ligand) | 17 | 1.26 | 1.9 | 11.5 | 2.45 | 15 |  |  |  |  | 
Heteromutein 1 (heterodimer of the Δ9/13 and 7-84-103 NGF muteins) (from UniProt P01139 122-241) (complex) | 19 | 0.47 | 0.53 | 0.67 | 0.59 | 0.64 | 1.8 |  |  |  | 
wild-type nerve growth factor (unlabelled) (from UniProt P01139 122-241) (ligand) |  | 0.28 |  | 0.03 | 0.25 |  |  |  |  |  | 
Δ9/13 NGF mutein (from UniProt P01139 122-241) (ligand) |  |  | 0.51 |  | 0.46 |  |  | 20 | 27 |  | 
Δ9/13 NGF mutein (protein) SSTHPVFHMGEFSVCDSVSVWVGDKTTATDIKGKEVTVLAEVNINNSVFRQYFFETKCRASNPVESGCRGIDSKHWNSYCTTTHTFVKALTTDEKQAAWRFIRIDTACVCVLSRKATRRG |  |  |  |  |  |  |  |  |  | 40 | 37.5
